Our source for the Kd values is article PMC4117426.

This assay has as its target T1, 6×His-SlmA (E. coli), P0C093.
T1 chain: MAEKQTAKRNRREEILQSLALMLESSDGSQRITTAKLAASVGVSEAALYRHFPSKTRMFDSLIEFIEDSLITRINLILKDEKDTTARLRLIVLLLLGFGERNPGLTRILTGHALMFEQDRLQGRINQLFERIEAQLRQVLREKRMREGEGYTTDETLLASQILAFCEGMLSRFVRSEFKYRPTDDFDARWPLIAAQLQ
Put plainly: BLI; biotinylated SBS17-30mer (50 nM) on streptavidin tips, loaded with 4 µM SlmA or SlmA mutant; FtsZ or variants (4 µM, preincubated with 1 mM GDP) or peptides (up to 320 µM) in solution; 1× Pol buffer, room temperature. As to conditions: remark: other sources report otherwise. A general note: In BLI a coated tip is dipped into the sample, and binding shifts an interference pattern.

B1: FtsZ C-terminal tail peptide (Ztail-WT) (peptide)
peptide: DYLDIPAFLRKQAD
Usually Kd stands for the equilibrium constant for the complex coming apart. A high value points to lower affinity. B1 gave a Kd of 81 µM.
